Measurements as given in patent US20100261778, “Tumor Suppressor Killin” (published 2010).

Target: T1, Killin/N8-50 peptide (Homo sapiens, UniProt B2CW77 SEQ:8-49)
T1 chain: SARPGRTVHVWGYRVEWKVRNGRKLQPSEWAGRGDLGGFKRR
Experiment: EMSA; apparent Kd; 20 mM Tris-Cl pH 8.4, 25 mM KCl, 1.5 mM MgCl2, 100 ug/mL BSA, RT
Settings: protein: synthetic, tags: chemically synthesized 42 aa peptide (Sigma-Genosys, at least 70% purity)
From the text: After annealing, probes for artificial replication fork (LL and RL) or double-stranded DNA template (LL and RLM) were end-labeled with α-³²P-dATP (Perkin-Elmer) using Klenow (New England Biolab). Single-stranded oligonucleotide (LL) was end-labeled with […] (Perkin-Elmer) using T4 polynucleotide kinase (New England Biolab). After purifying with Sephadex-G50 spin columns (Roche), the labeled probes (200,000 CPM each) were mixed with an increasing amount of Killin/N8-50 peptide in the presence of 20 mM Tris-Cl (pH 8.4), 25 mM KCl, 1.5 mM MgCl₂ and 100 μg/mL of BSA. The reaction mixtures were incubated at RT for 30 min and separated on a 6% polyacrylamide gel with 1× TBE buffer. After drying the gel onto a Whatman No. 1 filter paper, the DNA-protein complexes were visualized by autoradiography. For binding kinetics, bands from DNA-peptide complex were excised and the radioactivity was determined by scintillation counting. To determine the stability of the DNA-Killin peptide complex, 0.5 μg of either double-stranded (RF form) or single-stranded (viral form) of PhiX174 bacterial phage DNA (New England Biolab) were incubated at room temperature for 30 min with 1 ug of Killin/N8-50 peptide in a 20 μL reaction. The samples were then resolved on a 0.8% TAE agarose gel and stained with ethidium bromide.

TTTGCACGTCGGATCCGACCCAGACTACGGAGGCC (ssDNA) [LL single-stranded oligonucleotide] was tested, and the Kd (label: 32P (T4 PNK)) was 500 nM.

B1: LL/RLM double-stranded DNA (dsDNA)
DNA 1: TTTGCACGTCGGATCCGACCCAGACTACGGAGGCC
DNA 2: GGCCTCCGTAGTCTGGGTCGGATCCGACGTGC
In the case of B1, the Kd (label: 32P (Klenow fill-in)) is reported as 1000 nM.

B2: LL/RL artificial replication fork (structured_DNA)
DNA 1: B1 DNA 1
DNA 2: CCGGAGGCATCAGACGGTCGGATCCGACGTGC
With B2 the Kd (label: 32P (Klenow fill-in), replication fork with unpaired arms) was 1000 nM.
